Assay results: article PMC8026773 (Alzheimer's & dementia : the journal of the Alzheimer's …, 2020)

B1: human TREM2 Ig domain (aa 19-134), wild type, without BirA tag, in solution (domain or fragment, UniProt Q9NZC2 19-134, looked up)
chain: HNTTVFQGVAGQSLQVSCPYDSMKHWGRRKAWCRQLGEKGPCQRVVSTHNLWLLSFLRRWNGSTAITDDTLGGTLTITLRNLQPHDAGLYQCQSLHGSEADTLRKVLVEVLADPLD
B2: human sTREM2 (aa 19-157), wild type, in solution (domain or fragment, UniProt Q9NZC2 19-157, looked up)
chain: HNTTVFQGVAGQSLQVSCPYDSMKHWGRRKAWCRQLGEKGPCQRVVSTHNLWLLSFLRRWNGSTAITDDTLGGTLTITLRNLQPHDAGLYQCQSLHGSEADTLRKVLVEVLADPLDHRDAGDLWFPGESESFEDAHVEH

Biological target: GST-Aβ42 (monomeric amyloid beta 1-42 as a GST-fusion protein) (UniProt P05067 672-713)
Sequence (P05067 672-713): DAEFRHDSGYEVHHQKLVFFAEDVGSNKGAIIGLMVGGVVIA
Assay: BLI

Binder | Kd
B1 | 5.1 µM
B2 | 3.8 µM
